The target in one series is PSA (Homo sapiens, UniProt P07288). Particulars: cited from earlier work; for Kcat / Km: aminomethyl coumarin labeled peptides, 50 mM Tris, 0.1 M NaCl, pH 7.8.
For the next series, the system named is mice. As to the kind of experiment: In vivo toxicity after single intravenous injection. How it is done: To determine in vivo toxicity, proaerolysin variants were administered to mice intravenously.
The subject of series [1] is E14 mouse T-cell lymphoma cells (ATCC TIB-39). The experiment in a line: In vitro toxicity, MTS/PMS cell viability assay. It is filed as cell-based. The settings on record: 4 hours at 37° C., 1×10^−13 M-1×10^−7M toxin, FIG. 3; read-out: LC50 (the source's name). The protocol:
To determine in vitro toxicity, a cell viability assay was performed as follows. E14 mouse T-cell lymphoma cells (ATCC TIB-39) were cultured at 10^+5 cells per well in MTS/PMS Cell Titer 96 (Promega). […] Cell viability was subsequently determined by reading the plate on a plate reader, as directed by the manufacturer of the MTS/PMS kit.

Series [2] deals with human LNCaP prostate cancer xenografts which produce PSA. The experiment in a line: Intratumoral injection into PSA-producing LNCaP xenografts. It is filed as in vivo. Particulars: nude mice. The protocol:
The percent of tumor within sample was determined by calculating the ratio of viable tumor to total tumor area following image analysis of thin tumor sections.

The values below come from patent US7838266B2, “Proaerolysin containing protease activation sequences and methods of use for treatment of prostate cancer” (University of Victoria Innovation and Development …, priority 2001, dated 2010).

No end group written: not given here.

Chain of PSA (P07288 25-261): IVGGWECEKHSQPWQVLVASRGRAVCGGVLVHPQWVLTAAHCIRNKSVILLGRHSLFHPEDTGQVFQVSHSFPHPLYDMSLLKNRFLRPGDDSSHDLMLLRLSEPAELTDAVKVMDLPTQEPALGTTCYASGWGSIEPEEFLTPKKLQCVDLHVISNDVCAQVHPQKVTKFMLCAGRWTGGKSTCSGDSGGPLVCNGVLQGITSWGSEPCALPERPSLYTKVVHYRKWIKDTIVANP

For “SKLQ (also: fluorescently labeled (aminomethyl coumarin); listed as Homo sapiens) [SKLQ (21), PSA substrate peptide]”, in the series with PSA, the Kcat was 0.020 s⁻¹ and the Km was 813 µM.

In the case of “ATKSKQH (also: fluorescently labeled (aminomethyl coumarin); listed as Homo sapiens) [ATKSKQH (17), PSA substrate peptide]”, in the series with PSA, the Kcat was 0.0091 s⁻¹; the Km is 1310 µM; the “efficiency and specificity of hydrolysis by PSA” value (shortened to “efficiency and specificity”) is given as “not efficient, but were specifically hydrolyzed by PSA”.

Take “EHSSKLQ (also: fluorescently labeled (aminomethyl coumarin); listed as Homo sapiens) [EHSSKLQ (20), PSA substrate peptide]”: in the series with PSA, the Kcat was 0.012 s⁻¹ and the Michaelis constant (Km) was 1160 µM.

For the substance “SRKSQQY (also: fluorescently labeled (aminomethyl coumarin); listed as Homo sapiens) [SRKSQQY (16), PSA substrate peptide]”, in the series with PSA, the Kcat is 0.023 s⁻¹; the Km was 90 µM; the “efficiency and specificity” value was “efficiently but not specifically hydrolyzed by PSA”.

As to “KGLSSQC (also: fluorescently labeled (aminomethyl coumarin); listed as Homo sapiens) [KGLSSQC (18), PSA substrate peptide]”, in the series with PSA, the Kcat was 0.0017 s⁻¹ and the Km was 300 µM.

Wild-type proaerolysin: the “lethality after dose of 1 μg” value in the series on mice (intravenous, 1 μg) is reported as “caused death within one hour”. Further, the “LD100 at 24 hours (dose that kills 100% of animals within 24 hours)” value in the series with mice (single IV injection, total dose) was determined as 0.1 µg. Further, the CC50 in series [1] was 0.15 nM. Moreover, the “antitumor effect against LNCaP xenografts” value in series [2] is listed as “minimal effect”.

On to “LGGSSQL (also: fluorescently labeled (aminomethyl coumarin); listed as Homo sapiens) [LGGSSQL (19), PSA substrate peptide]”, for which, in the series with PSA, the Kcat was 0.0037 s⁻¹; the Km is 900 µM; the “efficiency and specificity” value is listed as “not efficient, but were specifically hydrolyzed by PSA”.

In the case of “HSSKLQ (listed as Homo Sapiens) [HSSKLQ (5), PSA substrate peptide]”, in the series with PSA, the Kcat was 0.011 s⁻¹ and the Km was 470 µM.

In the case of “KGISSQY (also: fluorescently labeled (aminomethyl coumarin); listed as Homo sapiens) [KGISSQY (15), PSA substrate peptide]”, in the series with PSA, the Kcat was 0.043 s⁻¹; the Km is 160 µM; the “efficiency and specificity” value is on record as “efficiently but not specifically hydrolyzed by PSA”.

For orientation: Km means the concentration of substrate that gives half-maximal velocity.
